According to the supplement of paper PMC11316812:
± gives the standard deviation of the averaged measurements.

Key:
hTERT-HMEC = assay: percentage of EdU-negative (G0-arrested) nuclei per well, 72 h; higher = more G0 arrest; conditions: reference: sequence is the full UniProt precursor, the tested protein was the secreted form or ectodomain
MCF7 = assay: as above; conditions: reference: sequence is the full UniProt precursor, the tested protein was the secreted form or ectodomain
[1] = protein concentration 0.0225 µM
[2] = protein concentration 0.02125 µM
[3] = protein concentration 0.2125 µM
[4] = protein concentration 0.03125 µM
[5] = protein concentration 0.3125 µM
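Also: secreted proteins added to cultured cells, EdU pulse at the end, nuclei found by Hoechst imaging, EdU status from nuclear versus surrounding ring intensity ratio, PBS as neutral control.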

## MDPQCTMGLSNILFVMAFLLSGAAPLKIQAYFNETADLPCQFANSQNQSLSELVVFWQDQENLVLNEVYLGKEKFDSVHSKYMGRTSFDSDSWTLRLHNLQIKDKGLYQCIIHHKKPTGMIRIHQMNSELSVLANFSQPEIVPISNITENVYINLTCSSIHGYPEPKKMSVLLRTKNSTIEYDGVMQKSQDNVTELYDVSISLSVSFPDVTSNMTIFCILETDKTRLLSSPFSIELEDPQPPPDHIPWITAVLPTVIICVMVFCLILWKWKKKKRPRNSYKCGTNTMEREESEQTKKREKIHIPERSDEAQRVFKSSKTSSCDKSDTCF
hTERT-HMEC; [1]
  percentage of EdU-negative: 4.6 ± 0.096%
hTERT-HMEC; protein concentration 0.225 µM
  percentage of EdU-negative: 6.71 ± 0.18%
MCF7; [1]
  percentage of EdU-negative: 24 ± 1.6%
MCF7; protein concentration 0.225 µM
  percentage of EdU-negative: 25.9 ± 0.81%

## MDPRKVNELRAFVKMCKQDPSVLHTEEMRFLREWVESMGGKVPPATQKAKSEENTKEEKPDSKKVEEDLKADEPSSEESDLEIDKEGVIEPDTDAPQEMGDENAEITEEMMDQANDKKVAAIEALNDGELQKAIDLFTDAIKLNPRLAILYAKRASVFVKLQKPNAAIRDCDRAIEINPDSAQPYKWRGKAHRLLGHWEEAAHDLALACKLDYDEDASAMLKEVQPRAQKIAEHRRKYERKREEREIKERIERVKKAREEHERAQREEEARRQSGAQYGSFPGGFPGGMPGNFPGGMPGMGGGMPGMAGMPGLNEILSDPEVLAAMQDPEVMVAFQDVAQNPANMSKYQSNPKVMNLISKLSAKFGGQA
hTERT-HMEC; [2]
  percentage of EdU-negative: 4.96 ± 0.58%
hTERT-HMEC; [3]
  percentage of EdU-negative: 5.35 ± 0.39%
MCF7; [2]
  percentage of EdU-negative: 24.8 ± 1.7%
MCF7; [3]
  percentage of EdU-negative: 27.4 ± 0.36%

## MDPRLPAWALVLLGPALVFALGPAPTPEMREKLCGHHFVRALVRVCGGPRWSTEARRPATGGDRELLQWLERRHLLHGLVADSNLTLGPGLQPLPQTSHHHRHHRAAATNPARYCCLSGCTQQDLLTLCPY
hTERT-HMEC; [1]
  percentage of EdU-negative: 6.04 ± 0.67%
hTERT-HMEC; protein concentration 0.225 µM
  percentage of EdU-negative: 5.1 ± 0.54%
MCF7; [1]
  percentage of EdU-negative: 27 ± 2.5%
MCF7; protein concentration 0.225 µM
  percentage of EdU-negative: 26.9 ± 2.5%

## MDRAARCSGASSLPLLLALALGLVILHCVVADGNSTRSPETNGLLCGDPEENCAATTTQSKRKGHFSRCPKQYKHYCIKGRCRFVVAEQTPSCVCDEGYIGARCERVDLFYLRGDRGQILVICLIAVMVVFIILVIGVCTCCHPLRKRRKRKKKEEEMETLGKDITPINEDIEETNIA
hTERT-HMEC; [4]
  percentage of EdU-negative: 5.5 ± 0.31%
hTERT-HMEC; [5]
  percentage of EdU-negative: 5.88 ± 0.75%
MCF7; [4]
  percentage of EdU-negative: 24.5 ± 1.2%
MCF7; [5]
  percentage of EdU-negative: 23.3 ± 0.42%

## MDRGTLPLAVALLLASCSLSPTSLAETVHCDLQPVGPERGEVTYTTSQVSKGCVAQAPNAILEVHVLFLEFPTGPSQLELTLQASKQNGTWPREVLLVLSVNSSVFLHLQALGIPLHLAYNSSLVTFQEPPGVNTTELPSFPKTQILEWAAERGPITSAAELNDPQSILLRLGQAQGSLSFCMLEASQDMGRTLEWRPRTPALVRGCHLEGVAGHKEAHILRVLPGHSAGPRTVTVKVELSCAPGDLDAVLILQGPPYVSWLIDANHNMQIWTTGEYSFKIFPEKNIRGFKLPDTPQGLLGEARMLNASIVASFVELPLASIVSLHASSCGGRLQTSPAPIQTTPPKDTCSPELLMSLIQTKCADDAMTLVLKKELVAHLKCTITGLTFWDPSCEAEDRGDKFVLRSAYSSCGMQVSASMISNEAVVNILSSSSPQRKKVHCLNMDSLSFQLGLYLSPHFLQASNTIEPGQQSFVQVRVSPSVSEFLLQLDSCHLDLGPEGGTVELIQGRAAKGNCVSLLSPSPEGDPRFSFLLHFYTVPIPKTGTLSCTVALRPKTGSQDQEVHRTVFMRLNIISPDLSGCTSKGLVLPAVLGITFGAFLIGALLTAALWYIYSHTRSPSKREPVVAVAAPASSESSSTNHSIGSTQSTPCSTSSMA
hTERT-HMEC; [1]
  percentage of EdU-negative: 4.75 ± 0.063%
hTERT-HMEC; protein concentration 0.225 µM
  percentage of EdU-negative: 5.33 ± 0.45%
MCF7; [1]
  percentage of EdU-negative: 25.3 ± 2.4%
MCF7; protein concentration 0.225 µM
  percentage of EdU-negative: 27.3 ± 2.9%

## MDRRSRAQQWRRARHNYNDLCPPIGRRAATALLWLSCSIALLRALATSNARAQQRAAAQQRRSFLNAHHRSGAQVFPESPESESDHEHEEADLELSLPECLEYEEEFDYETESETESEIESETDFETEPETAPTTEPETEPEDDRGPVVPKHSTFGQSLTQRLHALKLRSPDASPSRAPPSTQEPQSPREGEELKPEDKDPRDPEESKEPKEEKQRRRCKPKKPTRRDASPESPSKKGPIPIRRH
hTERT-HMEC; [1]
  percentage of EdU-negative: 3.95 ± 0.71%
hTERT-HMEC; protein concentration 0.225 µM
  percentage of EdU-negative: 5.43 ± 0.11%
MCF7; [1]
  percentage of EdU-negative: 27.2 ± 2.3%
MCF7; protein concentration 0.225 µM
  percentage of EdU-negative: 25.8 ± 4.4%

## MDSDETGFEHSGLWVSVLAGLLLGACQAHPIPDSSPLLQFGGQVRQRYLYTDDAQQTEAHLEIREDGTVGGAADQSPESLLQLKALKPGVIQILGVKTSRFLCQRPDGALYGSLHFDPEACSFRELLLEDGYNVYQSEAHGLPLHLPGNKSPHRDPAPRGPARFLPLPGLPPALPEPPGILAPQPPDVGSSDPLSMVGPSQGRSPSYAS [Q9NSA1]
hTERT-HMEC; [4]
  percentage of EdU-negative: 4.59 ± 0.26%
hTERT-HMEC; [5]
  percentage of EdU-negative: 5.63 ± 0.48%
MCF7; [4]
  percentage of EdU-negative: 25 ± 1.2%
MCF7; [5]
  percentage of EdU-negative: 23.9 ± 1.2%

## MDSSREPTLGRLDAAGFWQVWQRFDADEKGYIEEKELDAFFLHMLMKLGTDDTVMKANLHKVKQQFMTTQDASKDGRIRMKELAGMFLSEDENFLLLFRRENPLDSSVEFMQIWRKYDADSSGFISAAELRNFLRDLFLHHKKAISEAKLEEYTGTMMKIFDRNKDGRLDLNDLARILALQENFLLQFKMDACSTEERKRDFEKIFAYYDVSKTGALEGPEVDGFVKDMMELVQPSISGVDLDKFREILLRHCDVNKDGKIQKSELALCLGLKINP
hTERT-HMEC; [1]
  percentage of EdU-negative: 4.77 ± 0.84%
hTERT-HMEC; protein concentration 0.225 µM
  percentage of EdU-negative: 5.6 ± 0.67%
MCF7; [1]
  percentage of EdU-negative: 40.5 ± 16%
MCF7; protein concentration 0.225 µM
  percentage of EdU-negative: 25.7 ± 0.85%
